Where a SMILES comes first, the peptide text is derived from it. Bridges are numbered along the chain shown (N, C = ends). [ ]: non-standard residue; d: D form. The star is where a group is joined. DOTA = O=C(O)CN1CCN(CC(=O)O)CCN(CC(=O)*)CCN(CC(=O)O)CC1; dPhe(4-NHCONH2) = NC(=O)Nc1ccc(C[C@@H](N)C(=O)O)cc1; Dihydroorotyl(S) = O=C1C[C@@H](C(=O)*)NC(=O)N1; Phe(4-Cl) = N[C@@H](Cc1ccc(Cl)cc1)C(=O)O; Phe(4-NH2) = Nc1ccc(C[C@H](N)C(=O)O)cc1
Test: Radioactive metabolites in plasma
Type: in vivo, human
Details: 1 min, 4 h, and 1, 2, 3, and 6 days after each administration, two study centres
Procedure: To generate pharmacokinetic data, blood samples (2 mL) were taken at the stop of infusion (0 min) and 5, 30, and 60 min, 4 h, and 1, 2, 3, and 6 days after the end of each [^177Lu]Lu-satoreotide tetraxetan administration. Urine samples were collected over three intervals within 48 h (0–6 h, 6–24 h, and 24–48 h in part A; 0–4 h, 4–24 h, and 24–48 h in part B) following the first treatment cycle of [^177Lu]Lu-satoreotide tetraxetan. Total activity concentrations in whole blood and urine were determined locally, using a gamma counter calibrated for lutetium-177. In two selected study centres, additional blood samples (2 mL) were collected at 1 min, 4 h, and 1, 2, 3, and 6 days after each [^177Lu]Lu-satoreotide tetraxetan administration to evaluate potential radioactive metabolites in plasma.

C[C@@H](O)[C@@H]1NC(=O)[C@H](CCCCN)NC(=O)[C@@H](Cc2ccc(NC(N)=O)cc2)NC(=O)[C@H](Cc2ccc(NC(=O)[C@@H]3CC(=O)NC(=O)N3)cc2)NC(=O)[C@H](NC(=O)[C@H](Cc2ccc(Cl)cc2)NC(=O)CN2CCN(CC(=O)O)CCN(CC(=O)O)CCN(CC(=O)O)CC2)CSSC[C@@H](C(=O)N[C@H](Cc2ccc(O)cc2)C(N)=O)NC1=O [[^177Lu]Lu-satoreotide tetraxetan, metal not drawn] ({DOTA}-[Phe(4-Cl)][dC][Phe(4-NH2)](Dihydroorotyl(S))[dPhe(4-NHCONH2)]KTC[dY]-NH2; disulfide 2-7 (inferred); C-terminus assumed)
Radioactive metabolites in plasma samples: No radioactive metabolites were observed
